Test results from the RNAGym collection of RNA variant scans (doi:10.7554/elife.90254).

B1: OR4K15 (parent)
chain: GUUAACGGUCAUAGGCCAUGGAAACUAGGAGCACCAUUUCGCUGCCAGUGAAGAAAUGAACAAAGAAAAUCUGGGCCAGGCAGGCAUCAAAAGAAAUAGUCUUGCGCUCAACCAGAAAGUCUGUAAUCAUUUUAAGGGUA

Variants of: B1
Test: self-cleavage, relative activity (ratio to wild type); higher = more cleavage; in vitro, sequencing; the parent is a self-cleaving ribozyme

Compared with GUUAACGGUCAUAGGCCAUGGAUACUAGGAGCACCAUUUCGCUGCCAGUGAAGAAAUGAACAAAGAAAAUCUGGGCCAGGCAGGCAUCGAAAGAAAUAGUCUUGCGCUCAACCAGAAAGUCUGUAAUCAUUUUAAGGGUA [A23U A89G], GUUAACGGUCAUAGGCCAUGGAUACUAGGAGCACCAUUUCGCUGCCAGUGAAGAAAUGAACAAAGAUAAUCUGGGCCAGGCAGGCAUCAAAAGAAAUAGUCUUGCGCUCAACCAGAAAGUCUGUAAUCAUUUUAAGGGUA [A23U A67U] is higher in self-cleavage: 0.86 for the first, 1.91 for the second.

Compared with GUUAACGGUCAUAGGCCAUGGAUACUAGGAGCACCAUUUCGCUGCCAGUGAAGAAAUGAACAAAGAAAAUCUGGGCCAGGCAGGCAUCAAAGGAAAUAGUCUUGCGCUCAACCAGAAAGUCUGUAAUCAUUUUAAGGGUA [A23U A92G], GUUAACGGUCAUAGGCCAUGGAUACUAGGAGCACCAUUUCGCUGCCAGUGAAGAAAUGAACAAAGAAAAUCUGGGCCAGGCAGGCCUCAAAAGAAAUAGUCUUGCGCUCAACCAGAAAGUCUGUAAUCAUUUUAAGGGUA [A23U A86C] is lower in self-cleavage: 1.46 for the first, 0.82 for the second.

First: GUUAACGGUCAUAGGCCAUGGAUACUAGGAGCACCAUUUCGCUGCCAGUGAAGAAAUGAACAAAGAAAAUCUGGGCCAGGCGGGCAUCAAAAGAAAUAGUCUUGCGCUCAACCAGAAAGUCUGUAAUCAUUUUAAGGGUA [A23U A82G]
Second: GUUAACGGUCAUAGGCCAUGGAUACUAGGAGCACCAUUUCGCUGCCAGUGAAGAAAUGAACAAAGAAAAUCUGGGCCAGGCAGGCAUCAAAAGAAAUAGUCUUGCGCUCAACCAGAAAGUCUGUAAUCAUUUUAAGGGUA [A23U]
The self-cleavage of the first is lower: 0.82 for the first, 1.19 for the second.

Compared with GUUAACGGUCAUAGGCCAUGGAUACUAGGAGCACCAUUUCGCUGCCAGUGAAGAAAUGGACAAAGAAAAUCUGGGCCAGGCAGGCAUCAAAAGAAAUAGUCUUGCGCUCAACCAGAAAGUCUGUAAUCAUUUUAAGGGUA [A23U A59G], GUUAACGGUCAUAGGCCAUGGAGACUAGGAGCACCAUUUCGCUGCCAGUGAAGAAAUGAACAAAGAAAAUCUGGGCCAGGCAGGCAUCAAAAGAAAUAGUCUUGCGCUCAACCAGAAAGUCUGUAAUCAUUUCAAGGGUA [A23G U133C] is lower in self-cleavage: 2.4 for the first, 1.35 for the second.

Compared with GUUAACGGUCAUAGGCCAUGGAUACUAGGAGCACCAUUUCGCUGCCAGUGGAGAAAUGAACAAAGAAAAUCUGGGCCAGGCAGGCAUCAAAAGAAAUAGUCUUGCGCUCAACCAGAAAGUCUGUAAUCAUUUUAAGGGUA [A23U A51G], GUUAACGGUCAUAGGCCAUGGAUACUAGGAGCACCAUUUCGCUGCCAGUGUAGAAAUGAACAAAGAAAAUCUGGGCCAGGCAGGCAUCAAAAGAAAUAGUCUUGCGCUCAACCAGAAAGUCUGUAAUCAUUUUAAGGGUA [A23U A51U] is higher in self-cleavage: 1.24 for the first, 1.33 for the second.

Going from GUUAACGGUCAUAGGCCAUGGAUACUAGGAGCACCUUUUCGCUGCCAGUGAAGAAAUGAACAAAGAAAAUCUGGGCCAGGCAGGCAUCAAAAGAAAUAGUCUUGCGCUCAACCAGAAAGUCUGUAAUCAUUUUAAGGGUA [A23U A36U] to GUUAACGGUCAUAGGCCAUGGAUACUAGGAGCACCAUUUCGCUGCCAGUGAAGAAGUGAACAAAGAAAAUCUGGGCCAGGCAGGCAUCAAAAGAAAUAGUCUUGCGCUCAACCAGAAAGUCUGUAAUCAUUUUAAGGGUA [A23U A56G], the self-cleavage falls from 1.53 to 1.29.

Compared with GUUAACGGUCAUAGGCCAUGGAUACUAGGAGCACCAUUUCGCUGCCAGUGAAGAAAUGAACAAAGUAAAUCUGGGCCAGGCAGGCAUCAAAAGAAAUAGUCUUGCGCUCAACCAGAAAGUCUGUAAUCAUUUUAAGGGUA [A23U A66U], GUUAACGGUCAUAGGCCAUGGAGACUAGGAGCACCAUUUCGCUGCCAGUGAAGAAAUGAACAAAGAAAAUCUGGGCCAGGCAGGCAUCAAAAGAAAUAGUCUUGCGCUCAACCAGAAAGUCUGUAAUCAUUCUAAGGGUA [A23G U132C] is lower in self-cleavage: 1.42 for the first, 1.07 for the second.

Going from GUUAACGGUCAUAGGCCAUGGAUACUAGGAGCGCCAUUUCGCUGCCAGUGAAGAAAUGAACAAAGAAAAUCUGGGCCAGGCAGGCAUCAAAAGAAAUAGUCUUGCGCUCAACCAGAAAGUCUGUAAUCAUUUUAAGGGUA [A23U A33G] to GUUAACGGUCAUAGGCCAUGGAUGCUAGGAGCACCAUUUCGCUGCCAGUGAAGAAAUGAACAAAGAAAAUCUGGGCCAGGCAGGCAUCAAAAGAAAUAGUCUUGCGCUCAACCAGAAAGUCUGUAAUCAUUUUAAGGGUA [A23U A24G], the self-cleavage rises from 1.06 to 1.15.

First: GUUAACGGUCAUAGGCCAUGGAUACUAGGAGCACCAUUUCGCUGCCAGUGAAGAAAUGAACAGAGAAAAUCUGGGCCAGGCAGGCAUCAAAAGAAAUAGUCUUGCGCUCAACCAGAAAGUCUGUAAUCAUUUUAAGGGUA [A23U A63G]
Second: GUUAACGGUCAUAGGCCAUGGAUACUAGGAGCACCAUUUCGCUGCCAGUGAAGAAAUGAACAAAGAAGAUCUGGGCCAGGCAGGCAUCAAAAGAAAUAGUCUUGCGCUCAACCAGAAAGUCUGUAAUCAUUUUAAGGGUA [A23U A68G]
The self-cleavage of the first is lower: 0.92 for the first, 1.45 for the second.

First: GUUAACGGUCAUAGGCCAUGGAUACUAGGAGCACCAUUUCGCUGCCAGUGAAGAAAUGAACAAAGAAAGUCUGGGCCAGGCAGGCAUCAAAAGAAAUAGUCUUGCGCUCAACCAGAAAGUCUGUAAUCAUUUUAAGGGUA [A23U A69G]
Second: GUUAACGGUCAUAGGCCAUGGAUACUAGGAGCACCAUUUCGCUGCCAGUGAAGAAAUGAACAAAGAAAAUCUGGGCCUGGCAGGCAUCAAAAGAAAUAGUCUUGCGCUCAACCAGAAAGUCUGUAAUCAUUUUAAGGGUA [A23U A78U]
The self-cleavage of the first is higher: 1.02 for the first, 0.2 for the second.

GUUAACGGUCAUAGGCCAUGGAUACUAGGAGCACCAUUUCGCUGCCAGUGAAGAAAUGAACAAAGAAAAUCUGGGCCAGGCAGGCAUCAAGAGAAAUAGUCUUGCGCUCAACCAGAAAGUCUGUAAUCAUUUUAAGGGUA [A23U A91G] showed a self-cleavage of 0.79.
